Literature values as cited in article PMC5371392.

Molecular target: KaiC (Synechococcus elongatus) (UniProt Q79PF4)
UniProt Q79PF4, sequence (Q79PF4 whole entry): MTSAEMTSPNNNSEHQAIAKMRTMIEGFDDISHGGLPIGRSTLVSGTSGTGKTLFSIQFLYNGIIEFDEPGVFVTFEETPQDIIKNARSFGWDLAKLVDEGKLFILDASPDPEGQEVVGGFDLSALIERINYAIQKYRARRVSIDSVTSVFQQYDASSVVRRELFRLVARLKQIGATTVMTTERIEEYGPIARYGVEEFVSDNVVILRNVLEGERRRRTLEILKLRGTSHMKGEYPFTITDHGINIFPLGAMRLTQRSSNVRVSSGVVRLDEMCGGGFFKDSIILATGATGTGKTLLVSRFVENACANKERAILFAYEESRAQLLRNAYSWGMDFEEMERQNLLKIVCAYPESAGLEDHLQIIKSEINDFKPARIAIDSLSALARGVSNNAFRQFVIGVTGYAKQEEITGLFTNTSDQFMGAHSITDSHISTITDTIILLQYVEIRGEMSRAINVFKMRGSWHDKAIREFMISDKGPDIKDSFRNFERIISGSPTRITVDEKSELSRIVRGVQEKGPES

Kd: 1 nM
Substance: KaiA (from UniProt Q79PF6)
